Laboratory results: PMC11068555

Biological target: SARS-CoV-2 S Foldon his (prefusion stabilized spike ectodomain) (SARS-CoV-2 (Wuhan-Hu-1) | bacteriophage T4) (UniProt P0DTC2)
Test: native gel or EMSA

SARS-CoV-2 S Foldon his (prefusion stabilized spike ectodomain) (from UniProt P0DTC2 14-1138) (domain or fragment)
stoichiometry N: 3
